The record followed here is article PMC2132754.

This experiment deals with recombinant mouse α-catenin with a COOH-terminal histidine tag (mouse) (UniProt P26231). The experiment in a line: co-sedimentation.
UniProt P26231, sequence (P26231 whole entry): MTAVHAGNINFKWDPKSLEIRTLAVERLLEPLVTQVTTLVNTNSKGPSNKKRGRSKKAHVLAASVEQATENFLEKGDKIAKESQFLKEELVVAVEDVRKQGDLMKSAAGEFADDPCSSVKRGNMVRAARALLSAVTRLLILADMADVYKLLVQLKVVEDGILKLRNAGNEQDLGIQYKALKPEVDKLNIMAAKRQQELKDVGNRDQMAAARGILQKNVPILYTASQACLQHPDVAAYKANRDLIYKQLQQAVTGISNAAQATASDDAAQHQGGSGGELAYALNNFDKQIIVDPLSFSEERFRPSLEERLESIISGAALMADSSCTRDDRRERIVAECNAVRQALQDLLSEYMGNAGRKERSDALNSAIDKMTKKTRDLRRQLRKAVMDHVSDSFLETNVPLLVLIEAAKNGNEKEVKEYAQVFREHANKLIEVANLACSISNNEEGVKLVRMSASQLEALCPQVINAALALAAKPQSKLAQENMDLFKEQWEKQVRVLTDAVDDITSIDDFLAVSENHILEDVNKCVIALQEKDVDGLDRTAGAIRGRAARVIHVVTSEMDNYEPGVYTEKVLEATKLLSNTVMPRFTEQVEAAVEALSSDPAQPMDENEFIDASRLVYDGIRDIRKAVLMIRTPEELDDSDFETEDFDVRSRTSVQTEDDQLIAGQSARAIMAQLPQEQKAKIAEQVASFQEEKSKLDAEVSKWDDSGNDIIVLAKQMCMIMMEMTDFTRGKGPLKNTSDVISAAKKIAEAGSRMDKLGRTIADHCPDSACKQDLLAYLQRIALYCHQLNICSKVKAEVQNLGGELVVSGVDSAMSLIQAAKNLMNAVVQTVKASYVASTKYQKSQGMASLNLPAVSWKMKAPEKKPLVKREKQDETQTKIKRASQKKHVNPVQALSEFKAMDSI

Turning to “vinculin 90-kD head fragment (V8 protease fragment of chicken gizzard vinculin) (domain or fragment)”, the stoichiometry N was 1.

By stoichiometry N is commonly meant a count of units in the complex or per binding partner.
